{"source": "patent US20230134571A1", "about": "(INTERNATIONAL AIDS VACCINE INITIATIVE, published 2023)", "experiment_in_all_cases": "cell-based or functional assay", "key": {"[1]": {"target": "HIV Env, isolate 1245045 (HIV)"}, "[2]": {"target": "HIV Env, isolate 2969249 (HIV)"}, "[3]": {"target": "HIV Env, isolate 3514597 (HIV)"}, "[4]": {"target": "HIV Env, isolate 20915593 (HIV)"}, "[5]": {"target": "HIV Env, isolate 20965238 (HIV)"}, "[6]": {"target": "HIV Env, isolate 21197826_V1 (HIV)"}, "[7]": {"target": "HIV Env, isolate 2768732_C5_16 (HIV)"}, "[8]": {"target": "HIV Env, isolate 19707346_E8_C6 (HIV)"}, "[9]": {"target": "HIV Env, isolate 20198102_E9_G1 (HIV)"}, "[10]": {"target": "HIV Env, isolate 20883229_C9_H6 (HIV)"}, "[11]": {"target": "HIV Env, isolate 21203310_G7_C3 (HIV)"}, "[12]": {"target": "HIV Env, isolate 21492713_B11_E3 (HIV)"}, "[13]": {"target": "HIV Env, isolate CAP136.1.16_E6_1 (HIV)"}, "[14]": {"target": "HIV Env, isolate CAP225.1.06_A2_18 (HIV)"}, "[15]": {"target": "HIV Env, isolate So405_T24_5 (HIV)"}, "[16]": {"target": "HIV Env, isolate CT966_E1-7 (HIV)"}, "[17]": {"target": "HIV Env, isolate CT140_140_B6 (HIV)"}, "[18]": {"target": "HIV Env, isolate CA146_H3_3 (HIV)"}, "[19]": {"target": "HIV Env, isolate CAP308.2.00_E11.35 (HIV)"}, "[20]": {"target": "HIV Env, isolate CAP330.2.00_F2.41 (HIV)"}, "[21]": {"target": "HIV Env, isolate 20417927.07 (HIV)"}, "[22]": {"target": "HIV Env, isolate 1170887.08 (HIV)"}, "[23]": {"target": "HIV Env, isolate CT810_G4-7 (HIV)"}, "[24]": {"target": "HIV Env, isolate Me178_G6.16 (HIV)"}, "[25]": {"target": "MuLV (Neg. Control)"}, "[26]": {"target": "HIV Env, isolate Ce1172_H1 (HIV)"}, "[27]": {"target": "HIV Env, isolate Du422.1 (HIV)"}, "[28]": {"target": "HIV Env, isolate ZM197M.PB7 (HIV)"}, "[29]": {"target": "HIV Env, isolate 0984.v2.c2 (HIV)"}, "[30]": {"target": "HIV Env, isolate 6040.v4.c15 (HIV)"}, "[31]": {"target": "HIV Env, isolate 6980.v0.c31 (HIV)"}, "[32]": {"target": "HIV Env, isolate Ce703010131_1E2 (HIV)"}, "[33]": {"target": "HIV Env, isolate Ce0665_F2 (HIV)"}, "[34]": {"target": "HIV Env, isolate Ce704810053_2B7 (HIV)"}, "[35]": {"target": "HIV Env, isolate CeCAP210_TA5 (HIV)"}, "[36]": {"target": "HIV Env, isolate CeCAP200_B8a (HIV)"}, "[37]": {"target": "HIV Env, isolate 7060101641A7(Rev-) (HIV)"}}}
{"binder": "ePGDM9 (antibody, V domains shown) VH: QAQLVQSGPEVRKPGTSVKVSCKNPGNTLTTYDLHWVRQVPGQGLQWMGWISHEGDKKVIVERFKAKVTIDWDRSTNTAYLQLSGLTSEDTAVYYCAKGSKHRLRDYALYDEDGALNWAVDVDYLANLEFWGQGTAVTVSS VL: DIVLTQSPLSLSVTPGESASISCKSSQSLIHGDRNNYLAWYVQKPGRSPQLLIDLASERASGVPDRFSGSGSRKDFTLKISRVETEDVGTYYCMQGRESPWTFGQGTKVDIK", "values": [{"measurement": "IC50", "setting": "[1]", "result": 0.002, "unit": "µg/mL"}, {"measurement": "IC80", "setting": "[1]", "result": 0.006, "unit": "µg/mL"}, {"measurement": "IC50", "setting": "[2]", "result": "> 50", "unit": "µg/mL"}, {"measurement": "IC80", "setting": "[2]", "result": "> 50", "unit": "µg/mL"}, {"measurement": "IC50", "setting": "[3]", "result": 0.003, "unit": "µg/mL"}, {"measurement": "IC80", "setting": "[3]", "result": 0.011, "unit": "µg/mL"}, {"measurement": "IC50", "setting": "[4]", "result": 0.004, "unit": "µg/mL"}, {"measurement": "IC80", "setting": "[4]", "result": 0.015, "unit": "µg/mL"}, {"measurement": "IC50", "setting": "[5]", "result": "> 50", "unit": "µg/mL"}, {"measurement": "IC80", "setting": "[5]", "result": "> 50", "unit": "µg/mL"}, {"measurement": "IC50", "setting": "[6]", "result": 12.7, "unit": "µg/mL"}, {"measurement": "IC80", "setting": "[6]", "result": 34.6, "unit": "µg/mL"}, {"measurement": "IC50", "setting": "[7]", "result": 0.016, "unit": "µg/mL"}, {"measurement": "IC80", "setting": "[7]", "result": 0.114, "unit": "µg/mL"}, {"measurement": "IC50", "setting": "[8]", "result": 0.005, "unit": "µg/mL"}, {"measurement": "IC80", "setting": "[8]", "result": 0.014, "unit": "µg/mL"}, {"measurement": "IC50", "setting": "[9]", "result": 0.007, "unit": "µg/mL"}, {"measurement": "IC80", "setting": "[9]", "result": 0.021, "unit": "µg/mL"}, {"measurement": "IC50", "setting": "[10]", "result": "> 50", "unit": "µg/mL"}, {"measurement": "IC80", "setting": "[10]", "result": "> 50", "unit": "µg/mL"}, {"measurement": "IC50", "setting": "[11]", "result": 9.94, "unit": "µg/mL"}, {"measurement": "IC80", "setting": "[11]", "result": "> 50", "unit": "µg/mL"}, {"measurement": "IC50", "setting": "[12]", "result": "> 50", "unit": "µg/mL"}, {"measurement": "IC80", "setting": "[12]", "result": "> 50", "unit": "µg/mL"}, {"measurement": "IC50", "setting": "[13]", "result": "> 50", "unit": "µg/mL"}, {"measurement": "IC80", "setting": "[13]", "result": "> 50", "unit": "µg/mL"}, {"measurement": "IC50", "setting": "[14]", "result": 0.025, "unit": "µg/mL"}, {"measurement": "IC80", "setting": "[14]", "result": 0.167, "unit": "µg/mL"}, {"measurement": "IC50", "setting": "[15]", "result": 14.3, "unit": "µg/mL"}, {"measurement": "IC80", "setting": "[15]", "result": "> 50", "unit": "µg/mL"}, {"measurement": "IC50", "setting": "[16]", "result": "< 0.0006", "unit": "µg/mL"}, {"measurement": "IC80", "setting": "[16]", "result": 0.003, "unit": "µg/mL"}, {"measurement": "IC50", "setting": "[17]", "result": 0.248, "unit": "µg/mL"}, {"measurement": "IC80", "setting": "[17]", "result": 1.83, "unit": "µg/mL"}, {"measurement": "IC50", "setting": "[18]", "result": "> 50", "unit": "µg/mL"}, {"measurement": "IC80", "setting": "[18]", "result": "> 50", "unit": "µg/mL"}, {"measurement": "IC50", "setting": "[19]", "result": 0.001, "unit": "µg/mL"}, {"measurement": "IC80", "setting": "[19]", "result": 0.004, "unit": "µg/mL"}, {"measurement": "IC50", "setting": "[20]", "result": "< 0.0006", "unit": "µg/mL"}, {"measurement": "IC80", "setting": "[20]", "result": 0.004, "unit": "µg/mL"}, {"measurement": "IC50", "setting": "[21]", "result": 0.03, "unit": "µg/mL"}, {"measurement": "IC80", "setting": "[21]", "result": 0.679, "unit": "µg/mL"}, {"measurement": "IC50", "setting": "[22]", "result": 0.008, "unit": "µg/mL"}, {"measurement": "IC80", "setting": "[22]", "result": 0.056, "unit": "µg/mL"}, {"measurement": "IC50", "setting": "[23]", "result": 0.087, "unit": "µg/mL"}, {"measurement": "IC80", "setting": "[23]", "result": 5.53, "unit": "µg/mL"}, {"measurement": "IC50", "setting": "[24]", "result": 0.006, "unit": "µg/mL"}, {"measurement": "IC80", "setting": "[24]", "result": 0.031, "unit": "µg/mL"}, {"measurement": "IC50", "setting": "[25]", "result": "> 50", "unit": "µg/mL"}, {"measurement": "IC80", "setting": "[25]", "result": "> 50", "unit": "µg/mL"}, {"measurement": "IC50", "setting": "[26]", "result": 0.007, "unit": "µg/mL"}, {"measurement": "IC80", "setting": "[26]", "result": 0.02, "unit": "µg/mL"}, {"measurement": "IC50", "setting": "[27]", "result": "> 50", "unit": "µg/mL"}, {"measurement": "IC80", "setting": "[27]", "result": "> 50", "unit": "µg/mL"}, {"measurement": "IC50", "setting": "[28]", "result": 0.017, "unit": "µg/mL"}, {"measurement": "IC80", "setting": "[28]", "result": 0.05, "unit": "µg/mL"}, {"measurement": "IC50", "setting": "[29]", "result": 2.81, "unit": "µg/mL"}, {"measurement": "IC80", "setting": "[29]", "result": "> 50", "unit": "µg/mL"}, {"measurement": "IC50", "setting": "[30]", "result": "< 0.0006", "unit": "µg/mL"}, {"measurement": "IC80", "setting": "[30]", "result": 0.003, "unit": "µg/mL"}, {"measurement": "IC50", "setting": "[31]", "result": "< 0.0006", "unit": "µg/mL"}, {"measurement": "IC80", "setting": "[31]", "result": 0.006, "unit": "µg/mL"}, {"measurement": "IC50", "setting": "[32]", "result": "< 0.0006", "unit": "µg/mL"}, {"measurement": "IC80", "setting": "[32]", "result": 0.004, "unit": "µg/mL"}, {"measurement": "IC50", "setting": "[33]", "result": 22.4, "unit": "µg/mL"}, {"measurement": "IC80", "setting": "[33]", "result": "> 50", "unit": "µg/mL"}, {"measurement": "IC50", "setting": "[34]", "result": 0.003, "unit": "µg/mL"}, {"measurement": "IC80", "setting": "[34]", "result": 0.007, "unit": "µg/mL"}, {"measurement": "IC50", "setting": "[35]", "result": 0.009, "unit": "µg/mL"}, {"measurement": "IC80", "setting": "[35]", "result": 0.073, "unit": "µg/mL"}, {"measurement": "IC50", "setting": "[36]", "result": 0.003, "unit": "µg/mL"}, {"measurement": "IC80", "setting": "[36]", "result": 0.022, "unit": "µg/mL"}, {"measurement": "IC50", "setting": "[37]", "result": 0.002, "unit": "µg/mL"}, {"measurement": "IC80", "setting": "[37]", "result": 0.013, "unit": "µg/mL"}]}
